# Test results reported in article PMC8804933 (The EMBO Journal, 2021).
# Where a chain is given by its changes, count along the chain named. In names and notes the source's numbering stands.
# B1: GST-UBE2R2 wild-type (enzyme)
# chain: MAQQQMTSSQKALMLELKSLQEEPVEGFRITLVDESDLYNWEVAIFGPPNTLYEGGYFKAHIKFPIDYPYSPPTFRFLTKMWHPNIYENGDVCISILHPPVDDPQSGELPSERWNPTQNVRTILLSVISLLNEPNTFSPANVDASVMFRKWRDSKGKDKEYAEIIRKQVSATKAEAEKDGVKVPTTLAEYCIKTKVPSNDNSSDLLYDDLYDDDIDDEDEEEEDADCYDDDDSGNEES
# B2: 15N-labeled UBE2S UBC E139R/E143R (residues 1-156) (domain or fragment)
# chain: MNSNVENLPPHIIRLVYKEVTTLTADPPDGIKVFPNEEDLTDLQVTIEGPEGTPYAGGLFRMKLLLGKDFPASPPKGYFLTKIFHPNVGANGEICVNVLKRDWTAELGIRHVLLTIKCLLIHPNPESALNEEAGRLLLRNYERYAARARLLTEIHG
# B3: 15N-labeled UBE2S UBC E139R (residues 1-156) (domain or fragment)
# chain: B2 chain with R143E
# B4: 15N-labeled UBE2S UBC E143R (residues 1-156) (domain or fragment)
# chain: B2 chain with R139E
# B5: GST-UBE2R2 R149E (enzyme)
# chain: B1 chain with R149E
# Key:
# [1] = target: T1, ubiquitin (unlabeled, wild-type) (human, UniProt P0CG48 1-76); assay: BLI
# [2] = target: T1, ubiquitin (unlabeled, wild-type); assay: NMR titration
Binder,Kd [1],binding result [2]
B1,650 µM,–
B2,–,binds
B3,–,binds
B4,–,binds
B5,> 4000 µM,–
